{"source": "IntAct's records for PubMed 30956113", "parents": {"B1": {"name": "Transmembrane 4 L6 family member 5 (Homo sapiens), O14894 (parent)", "chain": "MCTGKCARCVGLSLITLCLVCIVANALLLVPNGETSWTNTNHLSLQVWLMGGFIGGGLMVLCPGIAAVRAGGKGCCGAGCCGNRCRMLRSVFSSAFGVLGAIYCLSVSGAGLRNGPRCLMNGEWGYHFEDTAGAYLLNRTLWDRCEAPPRVVPWNVTLFSLLVAASCLEIVLCGIQLVNATIGVFCGDCRKKQDTPH"}, "B2": {"name": "Transmembrane 4 L6 family member 5 (Homo sapiens), O14894 (parent)", "chain": "B1 chain", "partner": "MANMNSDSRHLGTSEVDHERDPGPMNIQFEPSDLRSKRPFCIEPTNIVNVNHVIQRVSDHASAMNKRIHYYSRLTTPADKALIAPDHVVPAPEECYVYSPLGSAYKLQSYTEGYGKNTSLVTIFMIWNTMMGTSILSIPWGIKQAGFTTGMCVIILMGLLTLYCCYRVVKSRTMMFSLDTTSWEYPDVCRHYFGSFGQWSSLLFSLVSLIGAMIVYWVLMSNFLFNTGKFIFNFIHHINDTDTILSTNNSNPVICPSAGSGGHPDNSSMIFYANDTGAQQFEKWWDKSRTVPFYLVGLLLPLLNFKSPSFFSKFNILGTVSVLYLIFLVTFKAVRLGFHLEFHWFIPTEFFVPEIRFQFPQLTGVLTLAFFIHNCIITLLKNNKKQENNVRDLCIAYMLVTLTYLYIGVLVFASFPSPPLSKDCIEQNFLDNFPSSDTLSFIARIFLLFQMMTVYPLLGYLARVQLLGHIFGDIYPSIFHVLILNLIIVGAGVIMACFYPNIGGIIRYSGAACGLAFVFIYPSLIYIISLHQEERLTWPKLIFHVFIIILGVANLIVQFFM"}, "B3": {"name": "Transmembrane 4 L6 family member 5 (Homo sapiens), O14894 (parent)", "chain": "B1 chain", "partner": "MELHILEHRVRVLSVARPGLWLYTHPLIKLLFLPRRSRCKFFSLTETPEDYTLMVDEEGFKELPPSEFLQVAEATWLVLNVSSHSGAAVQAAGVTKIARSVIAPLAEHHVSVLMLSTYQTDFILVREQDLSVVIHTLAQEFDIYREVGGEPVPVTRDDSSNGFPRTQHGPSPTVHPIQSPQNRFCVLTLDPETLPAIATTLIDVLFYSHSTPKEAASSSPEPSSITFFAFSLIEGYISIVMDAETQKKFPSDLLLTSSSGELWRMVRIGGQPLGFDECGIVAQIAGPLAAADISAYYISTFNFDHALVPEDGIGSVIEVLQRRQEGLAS"}}, "data": [{"variants_of": "B1", "details": "with mtor_human MTOR", "values": [{"variant": "Y126S", "effect of a mutation on the interaction": "with no effect"}, {"variant": "N138A", "effect of a mutation on the interaction": "with no effect"}, {"variant": "W124A", "effect of a mutation on the interaction": "with no effect"}]}, {"variants_of": "B2", "details": "with SLC38A9, Q8NBW4", "values": [{"variant": "W124A", "effect of a mutation on the interaction": "with no effect"}]}, {"variants_of": "B3", "details": "with cast1_human CASTOR1, Q8WTX7", "values": [{"variant": "W124A", "effect of a mutation on the interaction": "with no effect"}]}]}
